Results as given in the Immune Epitope Database (IEDB).
Each block holds one sequence with its values, some of them ahead of it.

Key:
HLA-B*57:01 [1] = assay: IEDB peptide-MHC binding, purified MHC/competitive/radioactivity; ≥ and ≤ were set here for values at or beyond the usual limits of such assays
HLA-B*57:01 [2] = assay: IEDB peptide-MHC binding, purified MHC/competitive/radioactivity; filed as Kd, often an IC50 or EC50 that approximates it; ≥ and ≤ were set here for values at or beyond the usual limits of such assays
[3] = source organism: Mammarenavirus choriomeningitidis
[4] = source organism: Human immunodeficiency virus 2
[5] = source organism: Simian immunodeficiency virus

Sequence: ATCGIFALI
IC50 (HLA-B*57:01 [1]; [3]): 200 nM

IC50 (HLA-B*57:01 [1]; source organism: Homo sapiens): 100 nM
Sequence: ATIKLQSTV

Sequence: IVSSLHLSI
IC50 (HLA-B*57:01 [1]; [3]): 1000 nM

IC50 (HLA-B*57:01 [1]; source organism: Homo sapiens): 10000 nM
Sequence: KIYEGQVEV

IC50 (HLA-B*57:01 [1]; source organism: Homo sapiens): 10000 nM
Sequence: KSNGTIIHV

Kd (HLA-B*57:01 [2]; source organism: Homo sapiens): ≥ 70 µM
Sequence: KVAKVEPAV

Sequence: KVGWAWWTC
IC50 (HLA-B*57:01 [1]; [4]): 3000 nM

Sequence: LKSLYNTVC
Kd (HLA-B*57:01 [2]; [5]): ≥ 30 µM

Sequence: LLHSTYFPC
Kd (HLA-B*57:01 [2]; [5]): ≥ 50 µM

Sequence: MFEALPHII
Kd (HLA-B*57:01 [2]; [3]): ≥ 50 µM

Sequence: MYGLKGPDI
Kd (HLA-B*57:01 [2]; [3]): ≥ 50 µM

Sequence: QAQLNAWGC
Kd (HLA-B*57:01 [2]; [5]): ≥ 40 µM

IC50 (HLA-B*57:01 [1]; source organism: Homo sapiens): 13.7 nM
Sequence: RARQLNYTI

IC50 (HLA-B*57:01 [1]; source organism: Homo sapiens): 200 nM
Sequence: RTFHHGVRV

Kd (HLA-B*57:01 [2]; source organism: Homo sapiens): ≥ 70 µM
Sequence: RVAGIHKKV

Sequence: SIFLHLVKI
IC50 (HLA-B*57:01 [1]; [3]): 500 nM

Sequence: SSCIAQDNC
Kd (HLA-B*57:01 [2]; [5]): ≥ 50 µM

IC50 (HLA-B*57:01 [1]; source organism: Homo sapiens): 1000 nM
Sequence: TVAPFNPTV

IC50 (HLA-B*57:01 [1]; source organism: Homo sapiens): 2000 nM
Sequence: VTTDIQVKV

Sequence: WIQLGLQKC
Kd (HLA-B*57:01 [2]; [4]): ≥ 10 µM
